For orientation: Kd means the free concentration of one partner at which half of the binding sites on the other are occupied at equilibrium, for simple one-to-one binding.

For one assay, the target named is IL-18 (Homo sapiens) (UniProt Q14116). To be noted: cited from earlier work.
The target in assay [1] is IL-18 receptor on NK-92MI cells (human (endogenous in NK-92MI)) (UniProt Q13478).
Chain of IL-18 receptor on NK-92MI cells (human (endogenous in NK-92MI)) (Q13478 19-541, chain 1 of 2): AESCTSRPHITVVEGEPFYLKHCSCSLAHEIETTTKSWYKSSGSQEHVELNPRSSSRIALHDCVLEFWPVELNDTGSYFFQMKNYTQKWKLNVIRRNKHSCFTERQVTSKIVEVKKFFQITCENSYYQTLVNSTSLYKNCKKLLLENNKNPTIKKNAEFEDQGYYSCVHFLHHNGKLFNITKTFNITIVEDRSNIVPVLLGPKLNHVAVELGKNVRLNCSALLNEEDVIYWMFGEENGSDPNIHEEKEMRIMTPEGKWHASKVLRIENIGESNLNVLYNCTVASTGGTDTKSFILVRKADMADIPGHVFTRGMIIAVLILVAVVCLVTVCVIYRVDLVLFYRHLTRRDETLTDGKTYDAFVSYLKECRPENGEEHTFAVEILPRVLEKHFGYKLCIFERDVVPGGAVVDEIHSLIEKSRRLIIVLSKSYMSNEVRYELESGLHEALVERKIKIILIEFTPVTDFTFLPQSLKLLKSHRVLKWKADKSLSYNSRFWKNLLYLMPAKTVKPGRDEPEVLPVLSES
Chain of IL-18 receptor on NK-92MI cells (human (endogenous in NK-92MI)) (O95256 20-599, chain 2 of 2, further chain): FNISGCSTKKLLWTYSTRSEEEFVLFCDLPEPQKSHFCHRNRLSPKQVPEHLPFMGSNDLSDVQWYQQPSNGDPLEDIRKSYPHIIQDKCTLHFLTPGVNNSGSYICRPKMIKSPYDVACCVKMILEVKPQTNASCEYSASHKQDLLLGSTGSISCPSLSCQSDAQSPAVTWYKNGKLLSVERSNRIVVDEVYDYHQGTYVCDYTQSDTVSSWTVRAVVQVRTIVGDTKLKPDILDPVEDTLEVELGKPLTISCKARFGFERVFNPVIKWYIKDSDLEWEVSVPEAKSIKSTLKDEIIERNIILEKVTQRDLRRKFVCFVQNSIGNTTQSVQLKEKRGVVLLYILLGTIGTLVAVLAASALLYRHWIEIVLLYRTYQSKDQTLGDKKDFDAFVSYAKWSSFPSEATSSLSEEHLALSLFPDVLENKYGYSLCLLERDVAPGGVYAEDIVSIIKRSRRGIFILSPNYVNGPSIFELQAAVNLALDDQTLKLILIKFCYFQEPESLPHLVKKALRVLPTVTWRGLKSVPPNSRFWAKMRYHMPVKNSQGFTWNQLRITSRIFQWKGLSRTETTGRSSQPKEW

Chain of IL-18BP (O95998 31-194): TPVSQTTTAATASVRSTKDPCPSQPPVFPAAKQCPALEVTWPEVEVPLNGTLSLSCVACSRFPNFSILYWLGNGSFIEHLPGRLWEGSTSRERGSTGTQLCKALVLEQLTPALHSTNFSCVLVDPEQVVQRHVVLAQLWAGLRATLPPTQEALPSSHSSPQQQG
Chain of IL-18 (Homo sapiens) (Q14116 37-193): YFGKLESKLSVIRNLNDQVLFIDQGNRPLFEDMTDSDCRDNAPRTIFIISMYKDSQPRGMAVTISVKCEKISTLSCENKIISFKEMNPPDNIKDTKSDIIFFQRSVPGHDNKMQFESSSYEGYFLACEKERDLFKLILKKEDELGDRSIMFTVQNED

As for IL-18BP (from UniProt O95998), the Kd with IL-18 (Homo sapiens) was 0.4 nM.
Take “recombinant mature human interleukin-18 E6K (ligand)”: in assay [1], the IFN-γ in the supernatant (ELISA) of NK-92MI cells stimulated with 0.5 ng/ml IL-12 and 12.5-200 ng mL^-1 IL-18; activity against wild-type IL-18 at 200 ng mL^-1 (times higher than wild-type IL-18) came out at 9.3.
The same measure, in the same setting: as for “recombinant mature human interleukin-18 T63A (ligand)”, the figure is 3.9.

Source of the values: PMC4970725.
